This assay has as its target T1, Bax (endogenous, in lysate of human Dami megakaryocytic cells) (human, UniProt Q07812 1-192, limits assumed).
T1 construct: Endogenous protein in a cell lysate
Nature of the assay: pull-down of biotin-labeled peptide with streptavidin beads from Dami cell lysate, Western blot with anti-Bax antibody. On the procedure:
FIG. 1 illustrates Western Blots of Dami cell lysates incubated in the absence or presence of 200 μM biotin-labeled peptides. The peptides were: KLPVM (SEQ ID NO:8) (scrambled negative control), VPMLK (SEQ ID NO:2) (human version), VPTLK (SEQ ID NO:5) (mouse version), and VPALR (SEQ ID NO:6) (rat version). Immuno-precipitation was performed with streptavidin beads. Western blot analysis of immune precipitated samples were performed with anti-Bax polyclonal antibody.
Co-precipitation was performed as previously described (Yoshida, T., et al., Bax-inhibiting peptide derived from mouse and rat Ku70. Biochem Biophys Res Commun, 2004. 321(4): p. 961-6). […] After the precleaning of 200 μl of sample with 20 μl of streptavidin beads (Amersham-Pharmacia Biotech) at 4° C. for 1 h, the samples were incubated with 200 μM of various biotin-labeled peptides (biotin-KLPVM (SEQ ID NO:8), VPMLK (SEQ ID NO:2), VPTLK (SEQ ID NO:5) or VPALR (SEQ ID NO:6) for 2 h. Streptavidin beads (20 μl) were added to the samples and the mixtures were incubated at 4° C. After 2 h of incubation, the beads were washed with 100 μl of Chaps buffer 3 times by centrifugation (1000 rpm, at 4° C., 15 sec). The beads were boiled in 40 μl of Laemmli buffer and the eluted proteins (20 μl) were analyzed by Western blotting with anti-human Bax polyclonal antibody (BD-Pharmingen). […]

Where no end group is shown, it is not given here. The star is where a group is joined. Biotin = O=C1N[C@H]2[C@H](CS[C@H]2CCCCC(=O)*)N1

T1 sequence (Q07812 whole entry): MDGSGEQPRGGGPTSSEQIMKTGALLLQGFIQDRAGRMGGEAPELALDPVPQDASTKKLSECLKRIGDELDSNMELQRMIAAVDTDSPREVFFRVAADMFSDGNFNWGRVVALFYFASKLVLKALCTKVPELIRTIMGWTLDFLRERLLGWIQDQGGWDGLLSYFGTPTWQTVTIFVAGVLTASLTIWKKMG

B1: biotin-KLPVM (SEQ ID NO:8), scrambled negative control peptide (peptide)
peptide: Biotin-KLPVM
notes: Synthetic scrambled control peptide, biotin-labeled, used at 200 uM in Dami cell lysate
With B1, the binding result is “no binding (tested: 200 µM)”.

The values above are taken from patent US20090118165A1 (CASE WESTERN RESERVE UNIVERSITY, published 2009).
